Experimental data from article PMC10086132, “Riboflavin kinase and pyridoxine 5′-phosphate oxidase complex formation envisages transient interactions for FMN cofactor delivery” (Frontiers in Molecular Biosciences, 2023).

Assays:
[1] = molecular target: T1, RFK (riboflavin kinase; hRFK when loaded with FMN:ADP:Mg2+) (Homo sapiens, UniProt Q969G6); test: thermal unfolding followed by Trp and FMN fluorescence; assay type: binding; settings: FMN bound together with ADP:Mg2+ (hRFK) versus ligand-free RFK; 20 mM PIPES pH 7.0
T1 construct: recombinant, purified in apo-form by a previously described procedure
T1 sequence (Q969G6 1-155): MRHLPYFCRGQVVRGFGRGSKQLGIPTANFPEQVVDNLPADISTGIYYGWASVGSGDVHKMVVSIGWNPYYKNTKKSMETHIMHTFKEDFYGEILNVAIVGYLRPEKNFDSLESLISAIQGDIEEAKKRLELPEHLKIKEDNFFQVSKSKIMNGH

[2] = molecular target: T2, PNPOx (pyridoxine-5′-phosphate oxidase; aPNPOx for the apo-form) (Homo sapiens, UniProt Q9NVS9); test: as above; assay type: binding; settings: holo-form versus apo-form; 20 mM PIPES pH 7.0
T2 construct: gene PNPO; pET28a(+) in Escherichia coli, HisTrap-purified, tag removal not mentioned; homodimer; FMN removed for the apo-form
T2 sequence (Q9NVS9 1-261): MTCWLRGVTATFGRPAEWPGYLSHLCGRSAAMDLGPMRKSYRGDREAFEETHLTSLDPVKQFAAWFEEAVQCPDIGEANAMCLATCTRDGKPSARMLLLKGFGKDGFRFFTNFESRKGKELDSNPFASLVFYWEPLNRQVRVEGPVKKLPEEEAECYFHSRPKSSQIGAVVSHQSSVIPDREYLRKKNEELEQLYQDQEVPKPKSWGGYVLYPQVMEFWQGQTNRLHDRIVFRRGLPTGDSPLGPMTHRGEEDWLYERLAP

[3] = molecular target: T2, PNPOx (pyridoxine-5′-phosphate oxidase; aPNPOx for the apo-form); test: stopped-flow flavin fluorescence quenching; assay type: binding; settings: faster of two association processes, 20 mM PIPES pH 7.0, 0.3 mM MgCl2, 25 °C
[4] = substrate: Cc1cc2nc3c(=O)[nH]c(=O)nc-3n(C[C@H](O)[C@H](O)[C@H](O)CO)c2cc1C; test: purified protein; settings: no aPNPOx, 400 µM ATP, 0.3 mM MgCl2, 20 mM PIPES pH 7.0, 25 °C
[5] = molecular target: T3, RFK (Homo sapiens, UniProt Q969G6); test: ITC
T3 chain: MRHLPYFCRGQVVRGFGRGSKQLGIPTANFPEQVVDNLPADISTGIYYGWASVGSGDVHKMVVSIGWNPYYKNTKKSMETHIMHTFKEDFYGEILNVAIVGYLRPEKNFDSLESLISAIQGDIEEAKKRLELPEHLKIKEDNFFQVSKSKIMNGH

[6] = molecular target: T3, RFK; test: stopped-flow fluorescence

Question: For `Cc1cc2nc3c(=O)[nH]c(=O)nc-3n(C[C@H](O)[C@H](O)[C@H](O)COP(=O)(O)O)c2cc1C` [FMN], which “increase of Tm” value [1] is on record?
Answer: Its value is ~ 32 °C.

Question: And the “increase of Tm” value [2]?
Answer: Its value is “Both proteins were considerably less stable in apo-forms regarding their respective holo-forms”.

Question: What about the “k on1 ^FMN” value [3] of the same molecule?
Answer: Its value is 340000 ± 20000 M⁻¹ s⁻¹.

B1: RFK (riboflavin kinase; hRFK when loaded with FMN:ADP:Mg2+) (Homo sapiens) (protein)
chain: MRHLPYFCRGQVVRGFGRGSKQLGIPTANFPEQVVDNLPADISTGIYYGWASVGSGDVHKMVVSIGWNPYYKNTKKSMETHIMHTFKEDFYGEILNVAIVGYLRPEKNFDSLESLISAIQGDIEEAKKRLELPEHLKIKEDNFFQVSKSKIMNGH
Question: How did the Km [4] turn out when B1 was run?
Answer: The Km was 2.2 ± 0.3 µM.

Question: And the kcat [4]?
Answer: The kcat was 1 s⁻¹.

Question: And the kcat/Km [4]?
Answer: The kcat/Km was 450000 M⁻¹ s⁻¹.

B2: PNPOx (protein)
chain: MTCWLRGVTATFGRPAEWPGYLSHLCGRSAAMDLGPMRKSYRGDREAFEETHLTSLDPVKQFAAWFEEAVQCPDIGEANAMCLATCTRDGKPSARMLLLKGFGKDGFRFFTNFESRKGKELDSNPFASLVFYWEPLNRQVRVEGPVKKLPEEEAECYFHSRPKSSQIGAVVSHQSSVIPDREYLRKKNEELEQLYQDQEVPKPKSWGGYVLYPQVMEFWQGQTNRLHDRIVFRRGLPTGDSPLGPMTHRGEEDWLYERLAP
modifications: apo-PNPOx homodimer; ligand-free RFK
Question: B2 was tested. Which Kd [5] did it give?
Answer: The Kd was 14000 nM.

B3: PNPOx (protein)
chain: MTCWLRGVTATFGRPAEWPGYLSHLCGRSAAMDLGPMRKSYRGDREAFEETHLTSLDPVKQFAAWFEEAVQCPDIGEANAMCLATCTRDGKPSARMLLLKGFGKDGFRFFTNFESRKGKELDSNPFASLVFYWEPLNRQVRVEGPVKKLPEEEAECYFHSRPKSSQIGAVVSHQSSVIPDREYLRKKNEELEQLYQDQEVPKPKSWGGYVLYPQVMEFWQGQTNRLHDRIVFRRGLPTGDSPLGPMTHRGEEDWLYERLAP
modifications: apo-PNPOx homodimer; RFK loaded with FMN and ADP:Mg2+
Question: What does the source list for B3?
Answer: Kd [5]: 900 nM; Kd [6]: ~1000 nM

B4: PNPOx (protein)
chain: MTCWLRGVTATFGRPAEWPGYLSHLCGRSAAMDLGPMRKSYRGDREAFEETHLTSLDPVKQFAAWFEEAVQCPDIGEANAMCLATCTRDGKPSARMLLLKGFGKDGFRFFTNFESRKGKELDSNPFASLVFYWEPLNRQVRVEGPVKKLPEEEAECYFHSRPKSSQIGAVVSHQSSVIPDREYLRKKNEELEQLYQDQEVPKPKSWGGYVLYPQVMEFWQGQTNRLHDRIVFRRGLPTGDSPLGPMTHRGEEDWLYERLAP
modifications: holo-PNPOx homodimer with FMN; RFK loaded with FMN and ADP:Mg2+; first binding site
Question: Which Kd [5] does the source give for B4 here?
Answer: Its Kd is 130 nM.
